These are literature values, as cited in PMC9760423.

The Kd is the constant that tells how readily two partners part at equilibrium.

Series [1] has as its target Cdc4 (Saccharomyces cerevisiae) (UniProt P07834).
The target in another series is 4E-BP2 (Homo sapiens) (UniProt Q13542).
Sequence of UniProt Q13542 (Q13542 whole entry): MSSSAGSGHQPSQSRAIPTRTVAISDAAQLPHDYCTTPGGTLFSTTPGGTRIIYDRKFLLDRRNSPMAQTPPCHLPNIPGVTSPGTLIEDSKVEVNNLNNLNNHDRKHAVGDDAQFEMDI

Sequence of UniProt P07834 (P07834 whole entry): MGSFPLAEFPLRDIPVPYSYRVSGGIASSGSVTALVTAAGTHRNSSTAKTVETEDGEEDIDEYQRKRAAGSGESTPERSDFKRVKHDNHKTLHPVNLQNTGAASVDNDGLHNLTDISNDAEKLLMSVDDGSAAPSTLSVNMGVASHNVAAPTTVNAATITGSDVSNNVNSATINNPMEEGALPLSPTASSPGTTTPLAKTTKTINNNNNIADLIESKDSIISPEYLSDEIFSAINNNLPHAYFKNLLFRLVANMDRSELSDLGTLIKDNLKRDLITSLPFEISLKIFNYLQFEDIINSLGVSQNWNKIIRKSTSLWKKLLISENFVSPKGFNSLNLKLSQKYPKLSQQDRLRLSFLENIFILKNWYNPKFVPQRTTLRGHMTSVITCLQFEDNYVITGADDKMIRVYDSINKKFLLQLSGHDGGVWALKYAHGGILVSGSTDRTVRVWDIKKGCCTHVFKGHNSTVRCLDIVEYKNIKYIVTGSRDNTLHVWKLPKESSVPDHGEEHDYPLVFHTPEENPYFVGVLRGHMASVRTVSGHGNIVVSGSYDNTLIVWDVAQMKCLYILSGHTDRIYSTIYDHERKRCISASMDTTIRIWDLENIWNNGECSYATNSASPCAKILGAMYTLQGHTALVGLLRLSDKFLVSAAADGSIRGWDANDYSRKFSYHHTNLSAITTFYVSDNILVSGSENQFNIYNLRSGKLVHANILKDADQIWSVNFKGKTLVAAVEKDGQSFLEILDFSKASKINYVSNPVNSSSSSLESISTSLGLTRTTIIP

On to Sic1 (from UniProt P38634), for which, in series [1], the Kd is 1000 nM. eIF4E (from UniProt P06730): in the series with 4E-BP2 (Homo sapiens), the Kd is 3.2 nM.
